Measurements taken from patent US20190361034A1.
Blank lines part the entries; values can stand above or below the substance they belong to.

Tests used:
[1] = biological target: MHC class II molecules on MHC class II-expressing Raji cells (human); test: transfer cell ELISA, Raji cells; 1000 ng/ml; plate row C
[2] = biological target: MHC class II molecules on MHC class II-expressing Raji cells (human); test: direct ELISA, plate-immobilised Raji cells; 10% FBS, 2,500 cells; 125 ng/ml
[3] = biological target: MHC class II molecules on MHC class II-expressing Raji cells (human); test: direct ELISA, plate-immobilised Raji cells; 5% BSA, 5,000 cells; 250 ng/ml
[4] = biological target: MHC class II molecules on MHC class II-expressing Raji cells (human); test: direct ELISA, plate-immobilised Raji cells; 10% FBS, 10,000 cells; 15.625 ng/ml
[5] = biological target: MHC class II molecules on MHC class II-expressing Raji cells (human); test: direct ELISA, plate-immobilised Raji cells; 10% FBS, 10,000 cells; 62.5 ng/ml
[6] = biological target: MHC class II molecules on MHC class II-expressing Raji cells (human); test: direct ELISA, plate-immobilised Raji cells; 10% FBS, 10,000 cells; 125 ng/ml
[7] = biological target: MHC class II molecules on MHC class II-expressing Raji cells (human); test: direct ELISA, plate-immobilised Raji cells; 5% BSA, 5,000 cells; 125 ng/ml
[8] = biological target: MHC class II molecules on MHC class II-expressing Raji cells (human); test: direct ELISA, plate-immobilised Raji cells; 5% BSA, 2,500 cells; 62.5 ng/ml
[9] = biological target: MHC class II molecules on MHC class II-expressing Raji cells (human); test: transfer cell ELISA, Raji cells; 250 ng/ml; plate row D
[10] = biological target: MHC class II molecules on MHC class II-expressing Raji cells (human); test: direct ELISA, plate-immobilised Raji cells; 10% FBS, 10,000 cells; 500 ng/ml
[11] = biological target: MHC class II molecules on MHC class II-expressing Raji cells (human); test: direct ELISA, plate-immobilised Raji cells; 10% FBS, 2,500 cells; 31.25 ng/ml
[12] = biological target: MHC class II molecules on MHC class II-expressing Raji cells (human); test: transfer cell ELISA, Raji cells; 7.813 ng/ml; plate row D
[13] = biological target: MHC class II molecules on MHC class II-expressing Raji cells (human); test: direct ELISA, plate-immobilised Raji cells; 5% BSA, 2,500 cells; 125 ng/ml
[14] = biological target: MHC class II molecules on MHC class II-expressing Raji cells (human); test: direct ELISA, plate-immobilised Raji cells; 10% FBS, 5,000 cells; 15.625 ng/ml
[15] = biological target: MHC class II molecules on MHC class II-expressing Raji cells (human); test: direct ELISA, plate-immobilised Raji cells; 10% FBS, 5,000 cells; 125 ng/ml
[16] = biological target: MHC class II molecules on MHC class II-expressing Raji cells (human); test: direct ELISA, plate-immobilised Raji cells; 10% FBS, 2,500 cells; 500 ng/ml
[17] = biological target: MHC class II molecules on MHC class II-expressing Raji cells (human); test: transfer cell ELISA, Raji cells; 500 ng/ml; plate row C
[18] = biological target: MHC class II molecules on MHC class II-expressing Raji cells (human); test: direct ELISA, plate-immobilised Raji cells; 5% BSA, 2,500 cells; 1000 ng/ml
[19] = biological target: MHC class II molecules on MHC class II-expressing Raji cells (human); test: transfer cell ELISA, Raji cells; 0.977 ng/ml; plate row C
[20] = biological target: MHC class II molecules on MHC class II-expressing Raji cells (human); test: direct ELISA, plate-immobilised Raji cells; 3% gelatin, 2,500 cells; 250 ng/ml
[21] = biological target: MHC class II molecules on MHC class II-expressing Raji cells (human); test: direct ELISA, plate-immobilised Raji cells; 0.5% Casein, 5,000 cells; 15.625 ng/ml
[22] = biological target: MHC class II molecules on MHC class II-expressing Raji cells (human); test: direct ELISA, plate-immobilised Raji cells; 0.5% Casein, 10,000 cells; 31.25 ng/ml
[23] = biological target: MHC class II molecules on MHC class II-expressing Raji cells (human); test: direct ELISA, plate-immobilised Raji cells; 0.5% Casein, 5,000 cells; 125 ng/ml
[24] = biological target: MHC class II molecules on MHC class II-expressing Raji cells (human); test: direct ELISA, plate-immobilised Raji cells; 0.5% Casein, 10,000 cells; 15.625 ng/ml
[25] = biological target: MHC class II molecules on MHC class II-expressing Raji cells (human); test: direct ELISA, plate-immobilised Raji cells; 0.5% Casein, 2,500 cells; 500 ng/ml
[26] = biological target: MHC class II molecules on MHC class II-expressing Raji cells (human); test: direct ELISA, plate-immobilised Raji cells; 3% gelatin, 2,500 cells; 125 ng/ml
[27] = biological target: MHC class II molecules on MHC class II-expressing Raji cells (human); test: transfer cell ELISA, Raji cells; 62.5 ng/ml
[28] = biological target: MHC class II molecules on MHC class II-expressing Raji cells (human); test: transfer cell ELISA, Raji cells; 250 ng/ml
[29] = biological target: MHC class II molecules on MHC class II-expressing Raji cells (human); test: direct ELISA, plate-immobilised Raji cells; 3% gelatin, 2,500 cells; 31.25 ng/ml
[30] = biological target: MHC class II molecules on MHC class II-expressing Raji cells (human); test: direct ELISA, plate-immobilised Raji cells; 3% gelatin, 5,000 cells; 125 ng/ml
[31] = biological target: MHC class II molecules on MHC class II-expressing Raji cells (human); test: direct ELISA, plate-immobilised Raji cells; 0.5% Casein, 10,000 cells; 500 ng/ml
[32] = biological target: MHC class II molecules on MHC class II-expressing Raji cells (human); test: transfer cell ELISA, Raji cells; 1000 ng/ml
[33] = biological target: MHC class II molecules on MHC class II-expressing Raji cells (human); test: direct ELISA, plate-immobilised Raji cells; 0.5% Casein, 2,500 cells; 15.625 ng/ml

OD (ELISA signal) [1]: 0.878 OD
OD (ELISA signal) [2]: 1.12 OD
OD (ELISA signal) [3]: 1.09 OD
OD (ELISA signal) [4]: 0.333 OD
OD (ELISA signal) [5]: 0.29 OD
OD (ELISA signal) [6]: 0.377 OD
OD (ELISA signal) [7]: 0.476 OD
OD (ELISA signal) [8]: 0.297 OD
OD (ELISA signal) [9]: 0.361 OD
OD (ELISA signal) [10]: 1.35 OD
OD (ELISA signal) [11]: 0.294 OD
OD (ELISA signal) [12]: 0.02 OD
OD (ELISA signal) [13]: 0.415 OD
OD (ELISA signal) [14]: 0.327 OD
OD (ELISA signal) [15]: 0.443 OD
OD (ELISA signal) [16]: 1.8 OD
OD (ELISA signal) [17]: 0.642 OD
OD (ELISA signal) [18]: 1.83 OD
OD (ELISA signal) [19]: 0.01 OD
Substance: IMP321 treated with Peptide-N-Glycosidase F (PNGase F) (Fc fusion)

OD (ELISA signal) [20]: 1.95 OD
OD (ELISA signal) [21]: 0.207 OD
OD (ELISA signal) [22]: 0.18 OD
OD (ELISA signal) [23]: 0.197 OD
OD (ELISA signal) [24]: 0.185 OD
OD (ELISA signal) [25]: 0.18 OD
OD (ELISA signal) [26]: 0.77 OD
OD (ELISA signal) [27]: 0.223 OD
OD (ELISA signal) [28]: 0.956 OD
OD (ELISA signal) [29]: 0.303 OD
OD (ELISA signal) [30]: 0.823 OD
OD (ELISA signal) [31]: 0.188 OD
OD (ELISA signal) [32]: 2.03 OD
OD (ELISA signal) [33]: 0.168 OD
Substance: IMP321, recombinant soluble human LAG-3Ig fusion protein (Fc fusion)
